Measurements reported in patent publication US20240075137A1 (COMPUGEN, published 2024).

T1: human PVRIG on cells (human, UniProt Q6DKI7 1-326)
T1 construct: whole, on cells; over-expressed on HEK cells or endogenous on Jurkat and CD8 T cells; also called hPVRIG; HEK hPVRIG cells
T1 sequence (looked up): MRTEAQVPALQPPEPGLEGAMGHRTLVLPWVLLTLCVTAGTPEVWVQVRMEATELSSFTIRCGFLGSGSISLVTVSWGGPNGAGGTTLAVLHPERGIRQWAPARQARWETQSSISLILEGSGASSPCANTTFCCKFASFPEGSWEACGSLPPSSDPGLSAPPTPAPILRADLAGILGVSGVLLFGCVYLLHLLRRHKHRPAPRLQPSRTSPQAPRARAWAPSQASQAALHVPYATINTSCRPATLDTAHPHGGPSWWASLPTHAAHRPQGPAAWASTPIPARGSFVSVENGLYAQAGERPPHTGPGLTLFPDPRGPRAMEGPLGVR

T2: PVRIG (FACS-based competition assay of FIGS. 7 and 15) (Homo sapiens, UniProt Q6DKI7)
T2 construct: made because the format of the assay is only described in U.S. Ser. No. 15/048,967; also called human PVRIG
T2 sequence (receptor, looked up): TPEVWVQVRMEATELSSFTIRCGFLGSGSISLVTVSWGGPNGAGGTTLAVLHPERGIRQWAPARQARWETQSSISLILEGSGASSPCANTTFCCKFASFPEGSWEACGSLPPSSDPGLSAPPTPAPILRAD

T3: cynomolgus PVRIG on cells (cynomolgus, UniProt A0A2K5WVV8 41-322)
T3 construct: whole, on cells; also called cPVRIG; expi cPVRIG cells
T3 sequence: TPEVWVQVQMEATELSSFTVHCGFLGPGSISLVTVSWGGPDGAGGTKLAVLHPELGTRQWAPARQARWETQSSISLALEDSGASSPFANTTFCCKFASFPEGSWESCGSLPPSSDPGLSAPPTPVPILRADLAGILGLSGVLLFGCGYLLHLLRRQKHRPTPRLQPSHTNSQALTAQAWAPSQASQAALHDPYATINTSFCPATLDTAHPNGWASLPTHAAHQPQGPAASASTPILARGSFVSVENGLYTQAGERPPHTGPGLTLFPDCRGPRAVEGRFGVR

T4: human TIGIT on cells (human, UniProt Q495A1 22-141)
T4 construct: also called Expi293 human TIGIT over-expressing cells
T4 sequence: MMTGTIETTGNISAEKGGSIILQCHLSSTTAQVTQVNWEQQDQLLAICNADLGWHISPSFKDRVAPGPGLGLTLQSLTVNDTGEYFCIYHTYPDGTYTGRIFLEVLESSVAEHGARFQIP

B1: CHA.7.502 (antibody, V domains shown)
VH: DVQLVESGGDLVQPGGSRKLSCTASGFTFSNFGMHWVRQAPEKGLEWVAYISSGSSTIYYADTVKGRFTISRDNPENTLFLQMTSLRSEDTAMYYCTRLDYYTNSYSMDHWGQGTSVTVSS
VL: QIVLTQSPALMSASPGEKVTLTCSASSSLPYIYWYQQKPGSSPKPWIYLTSNLASGVPARFSGSRSGTSYSLTISSVEAEDAATYYCQQWSSNPFTFGSGTKLEIK
B2: CHA.7.522 (antibody, V domains shown)
VH: QVQLQQPGSELVRPGTSVKLSCKASGYTFTSYWVHWVRQRHGQGLEWIGNVYPGSGSTNYDEKFKSKGTLTVDTSSSTAYMHLSSLTSEDSAVYYCTRGVLRFPLDYWGQGTTLTVSS
VL: DIVMTQAAPSVPVTPGESVSISCRSSKSLLHSNGNTYLYWFLQRPGQSPHLLIYRMSNLASGVPDRFSGSGSGTAFTLRISRVEAEDVGVYYCMQHLEYPLTFGAGTKLELK
B3: CHA.7.514 (antibody, V domains shown)
VH: EVQLRQSGADLVKPGASVKLSCTASGFNIKDTYIDWVKQRPEQGLDWIGRIDPANGNTKYDPKFQGKATIITDTSSNTAYLQLSNLTSEDTAVYYCARYGSYPYFDYWGRGTTLAVSS
VL: SIVMTQTPKFLLISAGDRVTITCKASQSVRNDVAWYQQKPGQSPKLLMYYASNRYTGVPDRFTGSGYGTDFTFTISTVQAEDLAVYFCQQDYSSPPTFGGGTKLEIK
B4: CHA.7.510 (antibody, V domains shown)
VH: QVTLKESGPGILQPSQTLSLTCSFSGFSLNTSGTGVGWIRQPSGKGLEWLTHIWWNDNKFYNTFLKSRLTISKETSNNQVFLKIASVDTADAATYYCARMAYGNLWFVNWGQGTLVAVST
VL: DIVLTQSPASLAVSLGQRASISCRASRSVTISGYSYMYWYQQKPGQPPRLLFYLASNLASGVPARFSGSGSGTDFTLNIHPVEEEDAAIYYCQHSRELPYTFGGGTKLEIK
B5: CHA.7.508 (antibody, V domains shown)
VH: EVQLQQSGPDLVKPGASMKISCKASGYTFIDYNIHWVKQSQGKSLDWIGYIYPYNGGTGYNQKFKNKATLTVDSSSSTAYMEVRSLTFEDSAVYFCAREADYYGNRGQFDYWGQGTLVTVSA
VL: DIQMTQSPASLSVSVGETVTITCRASENIFSNLAWYQQKQGKSPQLLVYGEANLADGVPSRFSGSGSGTQYSLKINSLQSEDFGNYYCQHFWGTPYTFGGGTTLEIK
B6: CHA.7.503 (antibody, V domains shown)
VH: QVQLQQSGAELAKPGASVKMSCKASGYTFTSNWMHWVKQRPGQGLEWIGYINPSNGYTECNQKFRDKATLSADKSSSTAYMQLNSLTSADSAVYYCALMISAWLPYWGQGTLVTVSA
VL: DIVLTQSPASLAISLGQRATISCRASQSVSASSYSYVHWYQQKPGQPPKLLIKYASSLESGVPARFSGSGSGTDFTLNIHPVEEEDTATYYCLHTWEIPYTFGGGTKLEIK
B7: CHA.7.512 (antibody, V domains shown)
VH: QIQLVQSGPELKKPRETVKISCKASGYTFTDYSMHWVKQAPGKGLKWMGWINTETGEPTYADDFKGRFAFSLEASASSAYLQINILKDEDTATYFCARSRGGYYEDYYALDYWGQGTSVTVSS
VL: DIQMTQSPASLSASVGESVTITCRASGNIHYYLAWYQQKQGKSPQLLVYNAKNLADGVPSRFSGSGSGTQFSLKINSLQPEDFGSYYCQHFWISPPTFGGGTKLEIK
B8: CPA.9.059 (Fab, V domains shown)
VH: EVQLVETGGGLIQPGGSLRLSCAASGFTVSSNYMSWVRQAPGKGLEWVSVIYSGGSTYYADSVKGRFTISRDNSKNTLYLQMNSLRAEDTAVYYCARGARYSYGQYPYWGQGTLVTVSS
VL: DIQLTQSPSFLSASVGDRVTITCRASHDISSLFSWYQQKPGKAPKLLIYAASTLQTGVPSRFSGSASGTEFTLTISSLQPEDFATYYCLQLDSFPTWTFGQGTKVEIK
notes: phage fab, campaign 2; fab form of CPA.9.059 hIgG4 (m73); also called CPA.9.059 (fab)

The binders below were run against T1, human PVRIG on cells (assay: FACS, HEK hPVRIG over HEK parental cells, 3.3ug/ml).

Point of comparison: B4, “gMFIr HEK OE/par” value 16.3. Against it:
- B1 — higher, 72
- B2 — lower, 10.1
- B3 — higher, 49.8
- B5 — higher, 45.9
- B6 — higher, 261
- B7 — lower, 5.12

These binders were tested against T1, human PVRIG on cells (assay: FACS, human PBMC, CD56 int. NK cells, 10ug/ml).

Point of comparison: B3, “gMFIr Human CD56 int. NK” value 4.16. Against it:
- B1 — lower, 1.97
- B2 — lower, 2.06
- B4 — lower, 3.13
- B5 — lower, 3.6
- B6 — lower, 3.15
- B7 — lower, 1.3

These binders were tested against T1, human PVRIG on cells (assay: FACS, human PBMC, CD8+ T cells, 10ug/ml).

Point of comparison: B2, “gMFIr Human CD8+ T cells” value 1.9. Against it:
- B1 — lower, 1.41
- B3 — higher, 5.15
- B4 — higher, 2.73
- B5 — higher, 4.09
- B6 — higher, 1.96
- B7 — lower, 1.15

Target: T1, human PVRIG on cells
Experiment: FACS, human PBMC, CD56 int. NK cells, 10ug/ml
Remark: another data set of the same source

Point of comparison: B1, “gMFIr Human CD56 int. NK” value 1.97. Against it:
- B2 — higher, 2.06
- B3 — higher, 4.16
- B4 — higher, 3.13
- B5 — higher, 3.6
- B6 — higher, 3.15
- B7 — lower, 1.3

These binders were tested against T2, PVRIG (FACS-based competition assay of …) (assay: FACS-based competition assay of PVRIG blocking; format and competitor not given).

Point of comparison: B1, IC50 39.9 nM. Against it:
- B2 — within 1.5-fold, 50.5 nM
- B3 — within 1.5-fold, 38.9 nM
- B4 — within 1.5-fold, 55 nM
- B5 — within 1.5-fold, 37.9 nM
- B7 — 21-fold higher, 840 nM

These binders were tested against T1, human PVRIG on cells (assay: FACS, HEK hPVRIG cells (HEK OE)).

Point of comparison: B4, EC50 92.8 nM. Against it:
- B1 — 2.3-fold lower, 40.2 nM
- B2 — within 1.5-fold, 91.4 nM
- B3 — 17-fold lower, 5.31 nM
- B5 — 28-fold lower, 3.3 nM
- B6 — 88-fold lower, 1.05 nM
- B7 — 1.8-fold lower, 53 nM

Each binder was assayed against T3, cynomolgus PVRIG on cells (assay: FACS, expi cPVRIG over expi parental cells, 3.3ug/ml).

Point of comparison: B2, “gMFIr Expi cyno OE/par” value 27.2. Against it:
- B1 — higher, 60.5
- B3 — higher, 65.2
- B4 — higher, 38.2
- B5 — higher, 41.5
- B6 — higher, 106
- B7 — lower, 8.96

Target: T3, cynomolgus PVRIG on cells
Experiment: as above
Remark: another data set of the same source

Point of comparison: B4, “gMFIr Expi cyno OE/par” value 38.2. Against it:
- B1 — higher, 60.5
- B2 — lower, 27.2
- B3 — higher, 65.2
- B5 — higher, 41.5
- B6 — higher, 106
- B7 — lower, 8.96

Target: T2, PVRIG (FACS-based competition assay of …)
Experiment: FACS-based competition assay of PVRIG blocking; format and competitor not given
Remark: another data set of the same source

Point of comparison: B4, IC50 55 nM. Against it:
- B1 — within 1.5-fold, 39.9 nM
- B2 — within 1.5-fold, 50.5 nM
- B3 — within 1.5-fold, 38.9 nM
- B5 — within 1.5-fold, 37.9 nM
- B7 — 15-fold higher, 840 nM

What follows are binders tested against T1, human PVRIG on cells (assay: FACS, Jurkat cells, relative to control, 3.3ug/ml).

Point of comparison: B6, “gMFIr Jurkat” value 23.6. Against it:
- B1 — lower, 6.21
- B2 — lower, 2.99
- B3 — lower, 7.67
- B4 — lower, 4.19
- B5 — lower, 6.5
- B7 — lower, 1.47

Target: T1, human PVRIG on cells
Experiment: FACS, human PBMC, CD8+ T cells, 10ug/ml
Remark: another data set of the same source

Point of comparison: B5, “gMFIr Human CD8+ T cells” value 4.09. Against it:
- B1 — lower, 1.41
- B2 — lower, 1.9
- B3 — higher, 5.15
- B4 — lower, 2.73
- B6 — lower, 1.96
- B7 — lower, 1.15

The binders below were run against T4, human TIGIT on cells (assay: flow cytometry of fab; MFI on human TIGIT over-expressing Expi293 / MFI on parental Expi293).

With B8 the “MFIr (OE/Par) hTIGIT” value was 11.
